The target in the assay is T1, human CD98hc (SLC3A2), heavy subunit of the Asc1/CD98hc heterodimer (human, UniProt P08195-2 1-529, N-glycosylation at residues 264, 280, 323 and 405; disulfide bridge from Cys 109 to Cys 154 of Asc1).
T1 construct: CD98hc (SLC3A2), human; residues 61-529 were modelled and the disulfide cysteine is numbered C109, which fits the 529-residue isoform (isoform f is named only for the HeLa construct); also called heavy chain; ancillary subunit; source: HEK293-6E, co-transfected with Asc1, purified as heterodimer in digitonin (Ni-NTA, size exclusion chromatography)
T1 sequence: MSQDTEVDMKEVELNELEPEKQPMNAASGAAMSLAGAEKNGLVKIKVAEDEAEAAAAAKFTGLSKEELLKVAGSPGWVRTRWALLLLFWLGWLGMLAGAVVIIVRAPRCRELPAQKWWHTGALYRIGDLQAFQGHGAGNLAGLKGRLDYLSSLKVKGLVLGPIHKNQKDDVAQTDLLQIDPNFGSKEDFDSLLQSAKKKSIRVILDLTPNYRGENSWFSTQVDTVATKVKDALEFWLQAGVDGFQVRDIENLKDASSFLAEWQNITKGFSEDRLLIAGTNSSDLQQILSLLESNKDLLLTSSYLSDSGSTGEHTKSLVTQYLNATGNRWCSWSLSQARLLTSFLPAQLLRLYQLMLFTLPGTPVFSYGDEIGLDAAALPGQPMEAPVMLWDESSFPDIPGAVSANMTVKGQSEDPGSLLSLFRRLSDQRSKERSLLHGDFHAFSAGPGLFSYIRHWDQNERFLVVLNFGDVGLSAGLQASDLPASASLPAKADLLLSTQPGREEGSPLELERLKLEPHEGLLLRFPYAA
Kind of assay: cryo-EM structure; heterodimer co-expressed in HEK293-6E, solubilised in 1% digitonin, purified by Ni-NTA and Superdex200 in 20 mM Tris-HCl pH 8.0, 150 mM NaCl, 0.1% digitonin; 1.2-1.5 mg/ml, 10 mM D-Ser added before vitrification (no ligand density found). As to conditions: both partners purified.

B1: human Asc1 (SLC7A10), light subunit of the Asc1/CD98hc heterodimer (natural protein)
chain: MAGHTQQPSGRGNPRPAPSPSPVPGTVPGASERVALKKEIGLLSACTIIIGNIIGSGIFISPKGVLEHSGSVGLALFVWVLGGGVTALGSLCYAELGVAIPKSGGDYAYVTEIFGGLAGFLLLWSAVLIMYPTSLAVISMTFSNYVLQPVFPNCIPPTTASRVLSMACLMLLTWVNSSSVRWATRIQDMFTGGKLLALSLIIGVGLLQIFQGHFEELRPSNAFAFWMTPSVGHLALAFLQGSFAFSGWNFLNYVTEEMVDARKNLPRAIFISIPLVTFVYTFTNIAYFTAMSPQELLSSNAVAVTFGEKLLGYFSWVMPVSVALSTFGGINGYLFTYSRLCFSGAREGHLPSLLAMIHVRHCTPIPALLVCCGATAVIMLVGDTYTLINYVSFINYLCYGVTILGLLLLRWRRPALHRPIKVNLLIPVAYLVFWAFLLVFSFISEPMVCGVGVIIILTGVPIFFLGVFWRSKPKCVHRLTESMTHWGQELCFVVYPQDAPEEEENGPCPPSLLPATDKPSKPQ
modifications: disulfide bridge from Cys 154 to Cys 109 of CD98hc
notes: Asc1 (SLC7A10), human; residues 41-489 were modelled in the cryoEM map; The final construct has no GFP; a version with C-terminal eGFP was used only in preliminary trials; also called hAsc1; light chain; source: HEK293-6E, co-transfected with CD98hc, purified as heterodimer in digitonin (Ni-NTA, size exclusion chromatography); not shown: 6xHis, C-terminal, kept
With B1, the binding result is “binds”.

Source of the values: PMC10998858, “Structure and mechanisms of transport of human Asc1/CD98hc amino acid transporter” (Nature Communications, 2024).
